According to patent publication US20170240920A1 (UCL BUSINESS, published 2017):
No end group written: not given here.

B1: StreptagII-d8-x2 on a GPI anchor (other)
chain: WSHPQFEKSGGGGSPAPRPPTPAPTIASWSHPQFEK
modifications: also: GPI anchor at C-terminal side, attached after further residues not given here
notes: Two copies of the tag separated by a CD8-based linker; expressed on the surface of transfected HEK 293T cells; also called StreptagII GPI (x2); Streptagll-d8-x2; not shown: residues between the second tag and the GPI attachment site
B2: Flankedccstreptag-d8-x2-GPI (other)
chain: ECHPQGPPCIEGRKSSGGGGSPAPRPPTPAPTIASECHPQGPPCIEGRKS
modifications: cysteine pairing not given here; also: GPI anchor at C-terminal side, attached after further residues not given here
notes: Two copies of the tag separated by a CD8-based linker; also called MP13024; Flankedccstreptag GPI (x2); not shown: residues between the second tag and the GPI attachment site

Target: T1, Streptavidin (Streptomyces avidinii, UniProt P22629 37-163, limits assumed)
T1 construct: The same protein was used as APC conjugate (flow cytometry) and on beads (sorting, virus capture); also called Streptavidin-APC; Streptavidin conjugated to Allophycocyanin
Test: flow cytometry, Streptavidin-APC staining of transfected 293T cells

T1 sequence (P22629 37-163 limits assumed): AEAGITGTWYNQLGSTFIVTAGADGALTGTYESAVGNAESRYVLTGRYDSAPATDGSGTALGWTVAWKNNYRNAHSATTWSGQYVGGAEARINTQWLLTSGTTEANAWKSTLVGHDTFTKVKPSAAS

Row | Binder | binding result
1 | B1 | binds
2 | B2 | binds
